From patent US11653679B2, “High-purity steviol glycosides” (PureCircle Sdn Bhd, priority 2014, dated 2023)

How the values were obtained:
[1] = Transformation of Stevioside to Rebaudioside A with UGT76G1 lysate (Examples 4, 13), HPLC; format: biochemical; conditions: per mL of lysate; 1 U transforms 1 μmol in 1 hour at 30° C. and pH 7.2
Procedure: The total volume of the reaction was 5.0 mL with the following composition: 50 mM sodium phosphate buffer pH 7.2, 3 mM MgCl2, 2.5 mM UDP-glucose, 0.5 mM Stevioside and 500 μl, of UGT76G1 thawed lysate. The reactions were run at 30° C. on an orbitary shaker at 135 rpm. For each sample, 460 μL of the reaction mixture was quenched with 40 μL of 2N H2SO4 and 420 μL of methanol/water (6/4). The samples were immediately centrifuged and kept at 10° C. before analysis by HPLC (CAD).
(§1) Activity tests were performed on a 5 mL scale with 500 μL of thawed lysate for the transformation of Stevioside to Rebaudioside A and Rebaudioside D to Rebaudioside M using 0.5 mM of substrate, 2.5 mM of UDP-Glucose and 3 mM MgCl2 in 50 mM Sodium Phosphate buffer at pH 7.2. Samples were taken and analyzed by HPLC.

[2] = Transformation of Rebaudioside D to Rebaudioside M with UGT76G1 (Examples 6, 13), HPLC; format: biochemical; conditions: per mL of lysate; 1 U transforms 1 μmol in 1 hour at 30° C. and pH 7.2
Procedure: The total volume of the reaction was 2 mL with the following composition: 50 mM sodium phosphate buffer pH 7.2, 3 mM MgCl2, 3.8 mM UDP-glucose, 0.5 mM Rebaudioside D and 180 μL of in-vitro produced UGT76G1. The reactions were run at 30° C. on an orbitary shaker at 135 rpm. For each sample, 400 μL of reaction mixture was quenched with 40 μL of 2N H2SO4 and 360 μL of 60% MeOH. After centrifugation, the supernatant was analyzed by HPLC (CAD).
as §1

B1: Example 11: UGT76G1 lysate prepared by pCOLDIII plasmid and ArcticExpress expression strain (protein, UniProt Q6VAB4 1-458, looked up)
UDP-glycosyltransferase 76G1: MENKTETTVRRRRRIILFPVPFQGHINPILQLANVLYSKGFSITIFHTNFNKPKTSNYPHFTFRFILDNDPQDERISNLPTHGPLAGMRIPIINEHGADELRRELELLMLASEEDEEVSCLITDALWYFAQSVADSLNLRRLVLMTSSLFNFHAHVSLPQFDELGYLDPDDKTRLEEQASGFPMLKVKDIKSAYSNWQILKEILGKMIKQTKASSGVIWNSFKELEESELETVIREIPAPSFLIPLPKHLTASSSSLLDHDRTVFQWLDQQPPSSVLYVSFGSTSEVDEKDFLEIARGLVDSKQSFLWVVRPGFVKGSTWVEPLPDGFLGERGRIVKWVPQQEVLAHGAIGAFWTHSGWNSTLESVCEGVPMIFSDFGLDQPLNARYMSDVLKVGVYLENGWERGEIANAIRRVMVDEEGEYIRQNARVLKQKADVSLMKGGSSYESLESLVSYISSL
modifications: E. coli ArcticExpress lysate, pCOLDIII
notes: UGT76G1 lysate prepared by pCOLDIII plasmid and ArcticExpress expression strain
For B1, the “Transformation activity Stevioside to Rebaudioside A” value [1] was 15 U mL^−1 and the “Transformation activity Rebaudioside D to Rebaudioside M” value [2] was 0.11 U mL^−1.
